This note sets out measurements from article PMC12527940, “Conformational plasticity of a BiP–GRP94 chaperone complex” (Nature Structural & Molecular Biology, 2025).

Values joined by “and” are separate entries in the source; they are usually repeats but may differ in a detail not shown here. Identical values can stand only once.

Series [1] addresses His6-tagged BiP (residues 27–655) (UniProt P20029). The series is described as follows: pull-down; Ni-NTA pull-down of His6-tagged BiP protein (4 µM) with 4 µM Strep-tagged or untagged GRP94 protein; 60 min at 37 °C, 50 mM HEPES pH 7.5, 50 mM NaCl, 2 mM MgCl2, 50 µM ATP, 3 µM BSA; Coomassie bands quantified.
The target of series [2] is Strep–linker–TEV site–GRP94 (73–802) (UniProt P08113). Briefly: negative-stain EM; 16 µM BiP and 32 µM HT2 reacted with 32 µM HyT36, 30 min at 37 °C with 50 µM ATP, then 16 µM GRP94 Δ72; GraFix (5–45% glycerol, 0.5% glutaraldehyde), fraction 12; single-particle negative stain, models fitted with Rosetta at 20 Å.
The target in series [3] is BiP-E243K (UniProt P20029). Briefly: pull-down; Ni-NTA pull-down of His6-tagged BiP protein (4 µM) with 4 µM Strep-tagged or untagged GRP94 protein; 60 min at 37 °C, 50 mM HEPES pH 7.5, 50 mM NaCl, 2 mM MgCl2, 50 µM ATP, 3 µM BSA; Coomassie bands quantified.
Series [4] deals with the molecule itself. Briefly: cross-linking; XL-MS: DSBU crosslinking (4 µM each), high-molecular-weight SDS–PAGE bands digested and analysed by LC–MS/MS, 5% FDR on residue pairs; GRP94 Δ72^noPT samples with 100 µM PU-WS13.

In turn, “GRP94 Δ72^noPT (from UniProt P08113 73-802) (domain or fragment)” displayed a percent reduction of GRP94 bound, against GRP94 Δ72 with its tag in series [1] of 65%.

Molecule “GRP94-K463E (Strep-tagged GRP94 Δ72 interface I mutant) (from UniProt P08113 73-802) (domain or fragment)” gave a percent reduction of GRP94 Δ72 copurified, against the wild-type pair in series [1] of 85%. Same read-out and setting: for “GRP94-K467E (Strep-tagged GRP94 Δ72 interface I mutant) (from UniProt P08113 73-802) (domain or fragment)” the value was 85%.

Consider “His6-tagged BiP (residues 27–655) (from UniProt P20029 27-655) (natural protein)”, for which the stoichiometry N (BiP per GRP94 dimer) in series [2] was 1 and 2. The molecule “Strep-tagged GRP94 Δ72-R116G interface II mutant (from UniProt P08113 73-802) (domain or fragment)” had a percent decrease of binding, against GRP94 Δ72 in series [1] of 30%.

Consider “Strep–linker–TEV site–GRP94 (73–802) (from UniProt P08113 73-802) (domain or fragment)”, for which, in series [2], the stoichiometry N (commonly a count of units in the complex or per binding partner) is 2. Also, in series [3], the percent reduction of GRP94 Δ72 copurified, against the wild-type pair worked out at 85%.

B1: Strep-tagged GRP94 FL (residues 23–802) (natural protein, mouse (cDNA of C2C12 cells), UniProt P08113 23-802, looked up)
chain: DEVDVDGTVEEDLGKSREGSRTDDEVVQREEEAIQLDGLNASQIRELREKSEKFAFQAEVNRMMKLIINSLYKNKEIFLRELISNASDALDKIRLISLTDENALAGNEELTVKIKCDKEKNLLHVTDTGVGMTREELVKNLGTIAKSGTSEFLNKMTEAQEDGQSTSELIGQFGVGFYSAFLVADKVIVTSKHNNDTQHIWESDSNEFSVIADPRGNTLGRGTTITLVLKEEASDYLELDTIKNLVRKYSQFINFPIYVWSSKTETVEEPLEEDEAAKEEKEESDDEAAVEEEEEEKKPKTKKVEKTVWDWELMNDIKPIWQRPSKEVEEDEYKAFYKSFSKESDDPMAYIHFTAEGEVTFKSILFVPTSAPRGLFDEYGSKKSDYIKLYVRRVFITDDFHDMMPKYLNFVKGVVDSDDLPLNVSRETLQQHKLLKVIRKKLVRKTLDMIKKIADEKYNDTFWKEFGTNIKLGVIEDHSNRTRLAKLLRFQSSHHSTDITSLDQYVERMKEKQDKIYFMAGSSRKEAESSPFVERLLKKGYEVIYLTEPVDEYCIQALPEFDGKRFQNVAKEGVKFDESEKTKESREATEKEFEPLLNWMKDKALKDKIEKAVVSQRLTESPCALVASQYGWSGNMERIMKAQAYQTGKDISTNYYASQKKTFEINPRHPLIRDMLRRIKEDEDDKTVMDLAVVLFETATLRSGYLLPDTKAYGDRIERMLRLSLNIDPEAQVEEEPEEEPEDTSEDAEDSEQDEGEEMDAGTEEEEEETEKESTEKDEL
notes: cloned from C2C12 complementary DNA into pET21d; also called Strep–GRP94 FL; FL GRP94 wild-type protein; source: E. coli BL21(DE3), purified (StrepTrap HP, SEC); not shown: Strep, N-terminal, kept
B1: the binding result in series [4] is given as “binds”. In series [1], this molecule yielded a percent less GRP94 pulled down, against GRP94 Δ72 of 75%.
